In patent US20240228562A1, “NOVEL LIPOCALIN MUTEINS SPECIFIC FOR CONNECTIVE TISSUE GROWTH FACTOR (CTGF)” (PIERIS PHARMACEUTICALS GMBH, priority 2021, published 2024):
Numbering of substitutions follows the chain as printed.

B1: SEQ ID NO: 9: parent CTGF-binding hNGAL lipocalin mutein (protein)
chain: QDSTSDLIPAPPLSKVPLQQNFQDNQFHGKWYVVGLAGNKILRIDKQPAKMFATIYELKEDKSYDVTSVRFEARSCSYTIKTFVPGSQPGEFTAGNIKSAPGQTSTLVRVVSTNYNQHAMVFFKHVSQNRETFVITLYGRTKELTSELKENFIRFSKSLGLPENHIVFPVPIDQCIDG
modifications: lipocalin mutein
B2: SEQ ID NO: 15: optimized CTGF-binding hNGAL lipocalin mutein (protein)
chain: B1 chain with H28Q, K40A, I44E, R74K, S77K, N96Y, S127T, T132I
modifications: lipocalin mutein
B3: SEQ ID NO: 29: parent CTGF-binding hNGAL lipocalin mutein (protein)
chain: QDSTSDLIPAPPLSKVPLQQNFQDNQFHGKWYVVGWAGNIKLREDKDPFKMSATIYELKEDKSYNVTEVVFEQKKCHYIIKTFVPGSQPGEFTLGDIKSPPGETSSLVRVVSTNYNQHAMVFFKKVFQNREFFWITLYGRTKELTSELKENFIRFSKSLGLPENHIVFPVPIDQCIDG
modifications: lipocalin mutein
B4: SEQ ID NO: 3: parent CTGF-binding hNGAL lipocalin mutein (protein)
chain: QDSTSDLIPAPPLSKVPLQQNFQDNQFHGKWYVVGRAGNNRLREDKDPPKMWATIYELKEDKSYNVTHVHFMTKKCRYIIDTFVPGSQPGEFTLGAIKSGPGMTSPLVRIVSTNYNQHAMVFFKWVNQNREWFTITLYGRTKELTSELKENFIRFSKSLGLPENHIVFPVPIDQCIDG
modifications: lipocalin mutein
B5: SEQ ID NO: 25: parent CTGF-binding hNGAL lipocalin mutein (protein)
chain: QDSTSDLIPAPPLSKVPLQQNFQDNQFHGKWYVVGMAGNFRLREDKDPSKMGATIYELKEDKSYNVTQVQFDDKKCLYVIETFVPGSQPGEFTLGAIKSFPGFTSQLVRVVSTNYNQHAMVFFKKVYQNREVFWITLYGRTKELTSELKENFIRFSKSLGLPENHIVFPVPIDQCIDG
modifications: lipocalin mutein
B6: SEQ ID NO: 7: parent CTGF-binding hNGAL lipocalin mutein (protein)
chain: QDSTSDLIPAPPLSKVPLQQNFQDNQFHGKWYVVGLAGNYGLRTDKRPSKMFATIYELKEDKSYDVTSVRFEQERCHYTIRTFVPGSQPGEFTTGSIKSRPGQTSSLVRVVSTNYNQHAMVFFKSVIQNREYFAITLYGRTKELTSELKENFIRFSKSLGLPENHIVFPVPIDQCIDG
modifications: lipocalin mutein
B7: SEQ ID NO: 23: optimized CTGF-binding hNGAL lipocalin mutein (protein)
chain: B1 chain with H28Q, L36V, K40A, I44P, R74K, S77K, A94S, N96Q, T132I
modifications: lipocalin mutein
B8: SEQ ID NO: 74: fusion protein comprising two CTGF-binding lipocalin muteins (protein)
chain: QDSTSDLIPAPPLSKVPLQQNFQDNQFQGKWYVVGLAGNAILREDKQPAKMFATIYELKEDKSYDVTSVRFEAKSCKYTIKTFVPGSQPGEFTAGYIKSAPGQTSTLVRVVSTNYNQHAMVFFKHVTQNREIFVITLYGRTKELTSELKENFIRFSKSLGLPENHIVFPVPIDQCIDGGGGGSGGGGSGGGGSQDSTSDLIPAPPLSKVPLQQNFQDNQFQGKWYVVGWAGNVKLREDKQPQKMSATIYELKEDKSYDVTEVVFEQKKCHYIIKTFVPGSQPGEFTAGDIKSPPGYTSSLVRVVSTNYNQHAMVFFKKVSQNREFFWITLYGRTKELTSELKENFIRFSKSLGLPENHIVFPVPIDQCIDG
modifications: fusion protein

Molecular target: T1, Rat CTGF (Rattus norvegicus, UniProt Q9R1E9)
T1 construct: purchased R&D Systems
T1 sequence (Q9R1E9 25-347): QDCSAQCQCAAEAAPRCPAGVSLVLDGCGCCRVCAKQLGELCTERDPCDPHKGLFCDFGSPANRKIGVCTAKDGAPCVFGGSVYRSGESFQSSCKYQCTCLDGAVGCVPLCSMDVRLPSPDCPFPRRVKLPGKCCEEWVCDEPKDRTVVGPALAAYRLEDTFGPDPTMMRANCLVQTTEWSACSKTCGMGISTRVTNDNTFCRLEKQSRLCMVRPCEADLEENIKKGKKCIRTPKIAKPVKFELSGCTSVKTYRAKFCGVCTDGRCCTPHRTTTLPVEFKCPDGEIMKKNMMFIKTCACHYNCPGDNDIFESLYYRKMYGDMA
Experiment: SPR binding kinetics and affinity, rat CTGF
Details: 25° C., 1:1 binding model
Outline: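 Targets either amine-coupled to CM5 chip (300–1100 RU; Fc-tagged human, untagged rat/murine) or Fc-captured via anti-human IgG; muteins injected 180 s contact, 900–3600 s dissociation, 30 μL/min, 25° C. Double-referenced sensorgrams fit to 1:1 model giving kon, koff and KD.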

Row | Molecule | Kd [nM] | Rat CTGF koff [s⁻¹] | Rat CTGF kon [M⁻¹ s⁻¹]
1 | B1 | 16 | 0.00169 | 105000
2 | B2 |  | 0.000114 | 120000
3 | B3 | 18 | 0.00317 | 176000
4 | B4 | 39.3 | 0.0117 | 297000
5 | B5 | 27.7 | 0.00129 | 46500
6 | B6 | 62.8 | 0.00754 | 120000

Molecular target: T2, Human CTGF with a human IgG1 Fc Tag (Homo sapiens, UniProt P29279, H83D)
T2 construct: purchased Creative Biomart
T2 sequence (P29279 with tags, fused parts or gaps H83D): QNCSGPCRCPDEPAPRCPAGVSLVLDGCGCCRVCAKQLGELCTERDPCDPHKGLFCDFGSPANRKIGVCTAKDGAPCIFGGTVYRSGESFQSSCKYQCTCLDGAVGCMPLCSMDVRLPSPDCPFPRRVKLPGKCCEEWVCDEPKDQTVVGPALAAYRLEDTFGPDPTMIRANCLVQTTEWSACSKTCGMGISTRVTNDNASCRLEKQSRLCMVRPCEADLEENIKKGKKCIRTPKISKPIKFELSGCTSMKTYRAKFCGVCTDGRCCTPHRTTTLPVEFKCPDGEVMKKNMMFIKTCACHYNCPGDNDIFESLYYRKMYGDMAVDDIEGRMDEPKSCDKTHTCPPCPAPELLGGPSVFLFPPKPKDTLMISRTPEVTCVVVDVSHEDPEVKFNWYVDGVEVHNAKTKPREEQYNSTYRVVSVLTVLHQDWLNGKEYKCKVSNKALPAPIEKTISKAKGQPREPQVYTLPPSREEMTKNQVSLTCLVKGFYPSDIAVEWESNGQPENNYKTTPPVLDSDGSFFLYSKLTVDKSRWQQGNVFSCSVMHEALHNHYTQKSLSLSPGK
Experiment: SPR epitope analysis (simultaneous binding)
Details: not given
Method: Surface plasmon resonance (SPR) was used to analyze the epitopes and determine simultaneous binding of different lipocalin muteins. Human CTGF with a human IgG1 Fc Tag was directly immobilized to a CM5 Chip (Creative Biomart, 10 μg/mL in 10 mM sodium acetate pH 4.5) until an immobilization level of 470-630 resonance units was achieved. The reference channel was activated/deactivated. […] As control, single lipocalin muteins were injected and the resulting signal of single and mixtures was compared at the end of the injection. The chip was regenerated with 3 M MgCl2 and Glycine-HCl pH1.5 for each 60 s at a flowrate of 15 μL/min.
“Yes” means simultaneous binding is possible, “no” stands for same or overlapping epitope, “n.t.” stands for not tested.

Row | Molecule | Epitope overlap with anti-CTGF antibody of SEQ ID NOs: 60 and 61
7 | B7 | overlapped

Same assay, conditions: SPR, mixed and injected simultaneously at 750 nM or 1000 nM

Row | Molecule | Simultaneous binding with SEQ ID NO: 7 | Simultaneous binding with SEQ ID NO: 9 | Simultaneous binding with SEQ ID NO: 25 | Simultaneous binding with SEQ ID NO: 29 | Simultaneous binding with SEQ ID NO: 60 and 61 (control antibody) | Simultaneous binding with SEQ ID NO: 3
8 | B1 | no | no | yes | yes | no | 
9 | B3 | yes | yes | no | no | yes | 
10 | B4 |  |  |  |  | yes | no
11 | B5 | yes | yes | no | no | yes | 
12 | B6 | no | no | yes | yes | no | 

Molecular target: T3, CTGF (Homo sapiens, UniProt P29279)
T3 sequence (P29279 27-349): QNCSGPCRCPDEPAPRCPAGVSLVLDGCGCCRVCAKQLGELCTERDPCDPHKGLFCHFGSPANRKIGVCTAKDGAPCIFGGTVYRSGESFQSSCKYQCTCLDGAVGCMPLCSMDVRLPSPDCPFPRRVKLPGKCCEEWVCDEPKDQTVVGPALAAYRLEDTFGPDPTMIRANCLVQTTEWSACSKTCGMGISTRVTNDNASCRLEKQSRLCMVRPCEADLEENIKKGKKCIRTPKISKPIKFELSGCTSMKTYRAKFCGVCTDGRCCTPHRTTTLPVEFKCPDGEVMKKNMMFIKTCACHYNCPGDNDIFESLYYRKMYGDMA
Experiment: Specificity ELISA (CCN proteins), human CTGF
Type: binding
Details: coated 1 μg/ml, muteins from 1000 nM
Method: (§1) Binding of muteins to closely related proteins of CTGF was tested by an ELISA assay. In detail, a 384-well plate suitable for fluorescence measurements (Greiner FLUOTRAC™ 600, black flat bottom, high-binding) was coated with 20 μl of human CTGF or the other members of the CCN protein family at a concentration of 1 μg/ml in PBS over night at 4° C. After washing with PBS with 0.05% Tween 20, wells were blocked with 100 μl blocking buffer containing 0.1% Tween 20 and 2% BSA (PBS-T/BSA) for 1 h at room temperature. 20 μl of serially diluted muteins starting at 1000 nM were incubated in PBS-T/BSA for 1 h at room temperature (RT).
(§2) The residual supernatants were discarded and 20 μl HRP-labeled anti-NGAL or anti-Strep-Tag antibody was added at a predetermined optimal concentration in PBS-T/BSA and incubated for 1 h at RT. After washing, 20 μl fluorogenic HRP substrate (QuantaBlu, Thermo) was added to each well, and the reaction was allowed to proceed for 2 to 60 minutes. The fluorescence intensity of every well on the plate was read using a fluorescence microplate reader (Tecan). When the signal for human CTGF approached saturation, the cross reactivity to the other proteins was assessed.

Row | Molecule | ELISA binding to HUMAN CTGF
13 | B7 | Binding
14 | B1 | Binding
15 | B2 | Binding
16 | B3 | Binding
17 | B4 | Binding
18 | B5 | Binding
19 | B6 | Binding
20 | B8 | Binding

Molecular target: T4, huWISP-3 (Homo sapiens, UniProt O95389)
T4 sequence (O95389 24-354): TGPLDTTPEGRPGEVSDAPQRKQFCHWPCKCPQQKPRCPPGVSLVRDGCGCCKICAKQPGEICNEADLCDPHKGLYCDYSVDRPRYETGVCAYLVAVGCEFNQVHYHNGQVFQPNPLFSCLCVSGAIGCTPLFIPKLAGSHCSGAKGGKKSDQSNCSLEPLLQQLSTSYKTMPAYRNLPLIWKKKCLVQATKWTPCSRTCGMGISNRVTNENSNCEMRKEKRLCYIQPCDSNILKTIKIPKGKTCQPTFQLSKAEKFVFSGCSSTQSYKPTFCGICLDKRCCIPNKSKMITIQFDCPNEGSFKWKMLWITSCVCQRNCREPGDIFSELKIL
Experiment: Specificity ELISA (CCN proteins), huWISP-3
Type: binding
Details: coated 1 μg/ml; assessed when human CTGF signal approached saturation
Method: as §1, §2

Row | Molecule | ELISA binding to huWISP-3
21 | B7 | No binding
22 | B1 | No binding
23 | B2 | No binding
24 | B3 | No binding
25 | B4 | No binding
26 | B5 | No binding
27 | B6 | No binding
28 | B8 | No binding
